Measured values from patent US12668821B2, “Enzymatic production of glucaric acid from glucuronic acid” (THE GOVERNING COUNCIL OF THE UNIVERSITY OF TORONTO, priority 2019, dated 2026).
Like-named read-outs stand apart in the source and are kept apart here.

Legend:
[1] = Activity screening of GOOX variants and glucose oxidase on GlcA; assay type: biochemical; conditions: enzyme 16 nM, 37° C., 10 mM GlcA (FIG. 11 legend; b102 says 100 mM), 100 mM Tris pH 8.0 (GOOX variants) or 50 mM sodium acetate pH 5.0 (GO)
Protocol: (§1) FIG. 11: Activity screening of GOOX variants and glucose oxidase (GO) on GlcA and MeGlcA substrates. The enzymes (16 nM) were assayed at 37° C. with 10 mM GlcA and 1 mM MeGlcA in 100 mM Tris buffer pH 8.0 (for GOOX variants) or 50 mM sodium acetate pH 5.0 (for GO). The dotted line indicates the activity of GOOX-VN for MeGlcA for ease of comparison. “CtCBM22A-wtGOOX” and “CtCBM22A-Y300A” represent fusion proteins where the C terminus of the xylan-binding protein CtCBM22A (described in Vuong and Master, 2014) is fused to the N terminus GOOX.
(§2) The specific activity of GOOX-Y300A (16 nM) on MeGlcA and GlcA (1 mM) was measured in 50 mM Tris buffer pH 8.0 at 40° C. The amount of methyl glucaric acid was determined by measuring the release of H2O2 using a previously published colorimetric assay (Lin et al., 1991). The kinetics of GOOX-Y300A on these acidic sugars were measured at the same condition, but using up to 60 mM MeGlcA and GlcA and in 0.3 M Tris buffer pH 8.0.

[2] = Activity screening of GOOX variants and glucose oxidase on MeGlcA; assay type: biochemical
Protocol: as §1, §2

[3] = Kinetics of GOOX-Y300A on MeGlcA (H2O2 colorimetric assay); assay type: biochemical; conditions: up to 60 mM MeGlcA, 0.3 M Tris buffer pH 8.0, 40° C.
Protocol: as §2
There was a dose response for the production of methyl glucaric acid, as the relative abundance of methyl glucaric acid increased when the substrate concentration was raised from 1 mM to 10 mM.

[4] = MeGlcA oxidation by GOOX-Y300A, substrate consumption by HPAEC-PAD; assay type: biochemical; conditions: after 24 h, 300 mM Tris buffer, 60 mM MeGlcA, based on substrate consumption
Excerpt: Reaction samples were vacuum-filtered using 0.22-μm, PVDF filter plates (Millipore, USA) with a Tecan liquid handler (500 mbar) (Tecan Trading AG, Switzerland). The flow-through was collected to Nunc™ 96-well polypropylene microplates (Thermo Fisher Scientific, USA), and covered with Nunc™ 96-well silicone cap mats. The presence of acidic sugars was detected using an ICS5000 HPAEC-PAD system (Dionex, USA) with a CarboPac PA1 (2×250 mm) analytical column (Dionex, USA). The HPAEC-PAD samples were eluted at 0.25 mL/min using NaOAc gradient (0-0.5 M) in 0.1 M NaOH. Chromatograms were analyzed using Chromeleon 7.2 (Dionex, USA).
In an attempt to improve the oxidation of GOOX-Y300A, the ionic strength of the Tris buffer was increased to 300 mM and the concentration of MeGlcA was brought up to 60 mM, higher than its Km. NSI-MS confirmed an increase in the intensity ratio of methyl glucaric acid over MeGlcA (FIG. 9). […] Provided that a similar xylan source was used, the conversion yield reported from the 3-enzyme pathway by Lee et al. (2016) (Lee et al., 2016a) was estimated ca. 20%, as determined by measuring NADH absorbance at 340 nm.

[5] = Foumani et al., 2011; read-out: Km on glucose; cited from earlier work
[6] = 200 mM H2O2; cited from earlier work
[7] = 200 mM H2O2; cited from earlier work; remark: listed apart in the source
[8] = Release of MeGlcA from glucuronoxylan by AxyAgu115A (HPAEC-PAD); assay type: biochemical, beechwood; conditions: from 1.5 g glucuronoxylan, calculated on the MeGlcA standard curve
Protocol: Glucuronoxylan (6%) was incubated with AxyAgu115A (10 μg/mL) and GOOX-Y300A (10 μg/mL) in 100 mM Tris buffer pH 8.0 at 40° C. in a rotator oven for up to 72 h. The reactions were then vacuum-filtered using 96-well filter plates (0.22-μm PVDF membrane) (Millipore, USA) in a Tecan liquid handler (500 mbar) (Tecan Trading AG, Switzerland). Enzymatic products in the flow-through were confirmed by mass spectrometry and quantified by HPAEC-PAD analysis.
Reaction samples were vacuum-filtered using 0.22-μm, PVDF filter plates (Millipore, USA) with a Tecan liquid handler (500 mbar) (Tecan Trading AG, Switzerland). […] The presence of acidic sugars was detected using an ICS5000 HPAEC-PAD system (Dionex, USA) with a CarboPac PA1 (2×250 mm) analytical column (Dionex, USA). […] Chromatograms were analyzed using Chromeleon 7.2 (Dionex, USA).
AxyAgu115A was produced with high purity (FIG. 2). The treatment of glucuronoxylan with AxyAgu115A released only MeGlcA, as analyzed by HPAEC-PAD (FIG. 3), and no additional release of MeGlcA was seen after 16 h. […]
The concentration of MeGlcA released from 1.5 g glucuronoxylan was 21.6±1.2 mM, calculated by on the MeGlcA standard curve (FIG. 5) whereas the estimated molar concentration of MeGlcA, based on a previous analysis of glucuronoxylan composition (Teleman et al., 2002), was 24.4 mM. […]

[9] = H2O2 inhibition assay of AxyAgu115A on glucuronoxylan; assay type: biochemical, beechwood
Protocol: FIG. 10: HPAEC-PAD analyses of H2O2 effects on AxyAgu115A activity and MeGlcA degradation.
AxyAgu115A (10 μg/mL) was incubated with 1% glucuronoxylan in 50 mM Tris buffer pH 8.0 in the presence of various H2O2 concentrations (0.01-100 mM). MeGlcA (1 mM) was also incubated with the same H2O2 concentrations. The reactions were kept in the dark at 40° C. for 16 h in a thermomixer (Eppendorf, USA). Catalase (200 μg/mL) was then added, and the reactions were kept incubating for another 30 min to remove H2O2 before HPAEC-PAD analysis.
The MeGlcA concentration released by AxyAgu115A from 6% glucuronoxylan after 16 h was around the Km of GOOX-Y300A on this acidic sugar, supporting the usage of GOOX-Y300A and AxyAgu115 in a one-pot reaction. […] Thus, a one-pot sequential reaction was performed where GOOX-Y300A was added to the reaction after pre-hydrolysis of glucuronoxylan by AxyAgu115A for 4 h. Following 16 h of incubation with GOOX-Y300A, methyl glucaric acid yields were similar to those achieved using the two-pot sequential system described above (i.e., 60% yield as confirmed by LC-MS).

Molecule | nmol oxidized GlcA Mean [1] [nmol] | specific activity on MeGlcA (in words) ([2]; among GOOX variants, FIG. 7) | nmol oxidized MeGlcA Mean ([2]; enzyme 16 nM, 37° C., 1 mM MeGlcA (FIG. 11 legend; b102 says 10 mM), 100 mM Tris pH 8.0 (GOOX variants) or 50 mM sodium acetate pH 5.0 (GO)) [nmol] | activity with MeGlcA as substrate (in words) ([2]; screening, compared with wtGOOX) | Km [3] [mM] | kcat on MeGlcA [3] [min⁻¹] | efficiency on MeGlcA oxidation [4] [%] | Km [5] [mM] | activity retained on glucose [6] | activity retained on cellobiose [7] [%] | concentration of MeGlcA released from glucuronoxylan [8] [mM] | activity lost in the presence of H2O2 ([9]; 10 mM H2O2) | H2O2 concentration at which activity was inhibited ([9]; 1% glucuronoxylan, 50 mM Tris pH 8.0, 40° C., 16 h) | effect of higher H2O2 concentrations on MeGlcA released from glucuronoxylan ([9]; peak area, HPAEC-PAD, FIG. 10A)
Y300A: GOOX variant with Y300A relative to SEQ ID NO: 1 (protein, listed as Sarocladium strictum, (1)..(206) FAD-binding domain; (207)..(474) substrate-binding domain) NSINACLAAADVEFHEEDSEGWEMDGTAFNLRVDYDPVAIAIPRSTEDIAAAVQCGLDAGVQISAKGGGHSYGSYGFGGEDGHLMLELDRMYRVSVDDDNVATIQGGARLGYTALELLDQGNRALTHGTCPAVGIGGHVLGGGYGFATHTHGLTLDWLVGATVVLADASIVHVSKTENADLFWALRGGGGGFAIVSEFEFNTFEAPEIITTYQVTTTWNRKQHVAGLKALQDWAENTMPRELSMRLEINANALNWEGNYFGNAKDLKKVLQPIMKKAGGKSTISKLVETDWYGQINTYLAGADLNITYNYDVHEYFYANSLTAPRLSDEAISAFVDYKFDNSSVRPGRGWWIQWDFHGGKNSALASHSNDETAYAHRDQLWLWQFYDNIYDYENNTSPYPESGFEFMQGFVATIEDTLPEDRKGKYFNYADTTLDKEEAQKLYWRGNLEKLQAIKAKYDPEDVFGNVVSVEPIA | -0.03566 | highest specific activity | 2.5 | improved activity over wtGOOX | 21 ± 2 | 0.91 ± 0.06 | 62 | 8.1 | more than 50% | 100 |  |  |  | 
AxyAgu115A: GH115 α-glucuronidase from Amphibacillus xylanus, SEQ ID NO: 4 (protein, listed as Amphibacillus xylanus) MDFTLNQEMLMTDTKSGALFYQEEEALSGVRKIANKVMHDVELVFGYQPEATKDRDMLSRHAVLYGTVGHSPLLDELNKKELIDLTEIAGKREVFLFQVVDQPIQGVEKALVIAGSDKRGTIYGLFHLSEKLGVSPLVDWSGVLPARKESFSLKGDYKYVSKEPSVKYRGFFINDEWPAFGNWSAKNFGGFNAEMYDHVFELLLRLKGNYLWPAMWSARFNDDGPGLANVELADEYGVIMGASHHEPCLRYGEEYKYLRGPDSIYGDAWNFITNREGITKFWEDGLKRTGHFENIITIGMRGEADTKIMGEDATLEDNINLLRDVIQTQNKLIKEHVNPNLKEVPRMLALYKEVEPFFYGDENTPGLINSEELEDVILMLCDDNHGNLRTLPTEDMRKHSGGYGMYYHFDYHGGPVSYEWINSSYLPKIWEQMTMAYDFGVRDLWIVNVGDIATQELPLSFFLDLAYDFDKWGTNAINKTDDYTKQWIEQQFAGVFNLEQKDKVFELLNGYTKIAHNRRPEAMNVDVYHPVNYHETDQLLDRIDHLLGLAEELYQEVDQQHFTAYFALVYYPTVGNLNLQKMWLLNGKNKYAAQLNLIEANKLAEQVKACLKRDQEIVDEYHTIADGKFYGMGLSEHIGFVHWNEDENKNPVLSYVLPVNKPRLLVSIDGTELRSEGSPWHVNTLPLVDFLEPDVNQASFTISSVSEKKAEYHISTDQDWLSCSAANGVLDGKNKLSETIHVFVDRDGLADQAEGRITVKTPVGKVTIVVPVVNNDFTNYPDMTFVDTKGYISIEAEHFATQKATENLDGTLNRFEVLDGYGKTLSAIKAFPTDTHYQVGKDAPFVEYHFVTQEAGVYELEFYLQPSNPVTREGTMYAGIQVNENDVDVINVLPDGYHVDGPHWGIDVINNIRTTKTKITCEQGLNKLRIYAVSPGFALEKIVIYPDGKKLANSYLGPNETYYVGR |  |  |  |  |  |  |  |  |  |  | 21.6 ± 1.2 | approximately half of AxyAgu115A activity was lost | greater than 1 mM | lowered the amount of MeGlcA released
